Reference: the DeepSol protein solubility set

Assay: soluble on expression in E. coli; label from the status in PepcDB or PDB records

| Sequence | soluble on expression in E. coli |
| --- | --- |
| MTQQIKYKRVLLKLSGESLMGSDPFGINHDTIVQTVGEIAEVVKMGVQVGIVVGGGNIFRGVSAQAGSMDRATADYMGMMATVMNALALKDAFETLGIKARVQSALSMQQIAETYARPKAIQYLEEGKVVIFAAGTGNPFFTTDTAAALRGAEMNCDVMLKATNVDGVYTADPKKDPSATRYETITFDEALLKNLKVMDATAFALCRERKLNIVVFGIAKEGSLKRVITGEDEGTLVHC | soluble |
| MTQVRETVSFKAGDVILYPGVPGPRDRAYRVLEGLVRLEAVDEEGNALTLRLVRPGGFFGEEALFGQERIYFAEAATDVRLEPLPENPDPELLKDLAQHLSQGLAEAYRRIERLATQRLKNRMAAALLELSETPLAHEEEGKVVLKATHDELAAAVGSVRETVTKVIGELAREGYIRSGYGKIQLLDLKGLKELAESRGQGR | soluble |
| MTRAEVGLVWAQSTSGVIGRGGDIPWSVPEDLTRFKEVTMGHTVIMGRRTWESLPAKVRPLPGRRNVVVSRRPDFVAEGARVAGSLEAALAYAGSDPAPWVIGGAQIYLLALPHATRCEVTEIEIDLRRDDDDALAPALDDSWVGETGEWLASRSGLRYRFHSYRRD | soluble |
| MTRCPERPGFMPRLSSHHFSRSRLSAPLLASGARVKLLCAPAGSGKTALLAECLQQAPETCRVSWLPLSGGRHSPQGLCAALAQALGLERDDEATVLQHLAHLQAPAWIFIDDYCRVAAADLDLLLDRLLSLDNPQLTWWLGCRRRPLCNWPRLLLDDQLFELDGPALAFSQIEIEQLLQRLPQPLCAQTASRILQRSGGWCAGVRIALLEGSELTIQPCKPGRPNTLLEYLEHELFSVLPAELAQVWQVLAHLPRFNAELCEHLFGVGEGAQYLRTLQDMACFIEPWDGGGDWLQVFPPLARLMRDE | not soluble |
| MTRHSAVRQAIIAALKKTDDGSTTFFDGRPVVVEEDELPAVAVYLSDAQYTGPEVDGDIWSAVLHVEVFLKATAPDSALDEQMENRVYPALGSVAGLGDIIRTMSAQGYNYQRDDEMAMWGSADLSYDITYSM | not soluble |
| MTRNAPPGQESTDLAWLVTPAKDLVENFSIDVLKALAGYLEVIRQESEDTDNQVDAATTYRLFDFQRACRIIQGSCAVYGRKVDHVYELTISVVDLVENKGQDDGNTGSRRGAGRRKNFNLGSTNYDLADIDSLKQEALANFEKTVKEEKKSIDAVRMVENAEVIESQYERKSCLVAKPTQFMFKLNYGQLNRTDEQILNAKSRPDVIGKVKDFEIKKSKVKHDQQILYSHDCYRGNLDQFTLPGARWMPDNKELAANFGVADLEVELDLEQEHEKISAYGPFKDPLSGREVVPPPRWFIEQEAVRQNQEIQSRATSRAITIAAKTLRDSQGFGSQPTRLSQPFVERHRQSNHLNDFLSFVEGRVNKNRPSTHLTTGLVDMFVDNFGSVMQNDEPNTSRRPDENYAPMDFDDDFGGGGDDDDDDYIRNLSRRDEKRAPAPWDELDKNHIIWYTGDENLPVVSKPVKKITKFQPKPAEMLARKQRREEKINKSRRDEFMETHDYLQDYYYWRSAARINPIKDWKIESLRTAILAEKKRRIKEKTAKIREARIQNMQRKRTARVIPVEQFEPVTEDIPTSNRRTLGAEYDDVVDEDLAAEVELSMFGGGFDDDEEDVRPRGERPPMAPNNLEFDALQTDFDIPPAEYVPLRFEDIDDAELNSVINLPGNLLIDKALPLLKKFAENRTDREQMAYEMAKAYEDVDVAVSTLQEHVDKWHSRMEPILEEGETRKEYDVHAVGRAVIGQYDIEGGTKRLLDLVMDRPWYEISRYFLSCLFMCNVGNVMVSEDMELPLEERINSMKITLLKRDMHCEMFKEAGALDA | not soluble |
| MTRSDRPYRGVEAAERLATRRRQSLSAGLDLLGSDQHDIAELTIRTICRRAGLSVRYFYESFTDKDEFVGRVFDWVVAELVATTQAAVTAVPAREQTRAGMANIVRTITADARVGRLLFSTQLANAVITRKRAESSALFAMLSGQHAVDTLHAPANDHVKAVAHFAVGGVGQTISAWLAGDVRLDPDQLVDQLAALLDELTDPNLSRPRVAATAAKSGANDPQPPEVAGQPPSSARPARRS | soluble |
| MTSDGMDEWPTGRLLSTAARLVEHSWEDILRSQNMTHAGLICLHTIADRPASQRDIAKVSRVTDQTISRTIDRLERAGYVTRETDPLDERRKRVAITESGRAIYRRLLALEKEDAALTAAVGDVGPLREQLLLLVRSLGLPTRD | not soluble |
| MTSFTIPGLSDKKASDVADLLQKQLSTYNDLHLTLKHVHWNVVGPNFIGVHEMIDPQVELVRGYADEVAERIATLGKSPKGTPGAIIKDRTWDDYSVERDTVQAHLAALDLVYNGVIEDTRKSIEKLEDLDLVSQDLLIAHAGELEKFQWFVRAHLESAGGQLTHEGQSTEKGAADKARRKSA | soluble |
| MTSMDNSARGQRHNEFADSAARIEAANDMSISAGRDVINKGSVLESGRDMSIQAGRDVTIAPTEVTNSLFSDSKHNSSDITQLGSTASAGRDLTVQAGRDISVIASQIDAKRDIAMAATENLTISSAADEEHSLSKSKKLTRQEDHVSQIAADLDAGGSVALQAGQNLAVISSRITAGKEAYLVAGDQLDILAAQDSDYSLYDKKKKGSFGAKKTKRDEITDVKNIGSEITTGGDLLLASGGDQKYQVAKLESGKDLTIDSGGAVTFEGVKDLHQESHEKSKSDLAWNSSKGKGNTDETLRQSELVAKGELAIRAVEGLKIDIKQVDQQSVSQTIDAMVKADPQLAWLKEAELRGDVDWRQVKEVHDSLIGTAVNAAVVAGLTSATSQAVISTVNNKGNLGAALKDVTSAESMKGYLVSGLAAGFAAGILDPAYGVSPENTAKATHGFDLGSVDGFTNYAGYTLAQGGFSAAANTAINGGSLTDNLAQAAISSAADAMSAGIYNKLGTKLEFSGLPSKLAAHALVGGLIAELAGGDFRSGALAAGANEAFVNLVGDKIFVGESHDKLLAMTSQLVGLTVAAAAGGTDKDQAVAGWVAQQATTFNYLEHSEKEAFIKEMLGCDTDKCAREKWEQGKFDEDSQANVQYANDIAGSQRARETRDRVLDSLGSILDMNCPTSACEGYKQLLMERSLGTLKNLNQVIKDWASVDQRLGLMAGAAVGGQANYKCGSTASRSAGVDLEHHHHHH | soluble |
| MTSMEEMLREAANEVLQSRIPPGYVLYPNYEQYWSHEHGMFYNPDTEQFYRPEDKTVYQLNAEGSEYVLVERRKPTYWASRSYRKRAIDLLGSAEFKKFDQNEVNICEIAFGMVDKVIKGEEMEKEKEYLRSIANNKVALMQHRINKVFKGNRRRKNPHRQYVANVDESSGHVEYTLQVDDYFDWEDAYEDNSDDEFSEKDEQAVLMHQEGFDQPPCMRVMDALRRLHIITISGGYLGSDRDCEIVVSNQLLPERCAEIVYSEEAQCYSIEKLEDACILQVNGNNVKTSSPVDLCQGDSILLSGERFDVHVHNGSNTCPGCEPGLQQGDDDIAPVTTVPAKNIRGEVARRKNLKQMMKSYGIRPDDVLSEPIRKRPATGPSEMNIHRSEAPGSSSDMYGSCAAKPMPEGQRKFDLPSTSAAVAAAAAPKPLDSGNVGFKLLKSMGWSEGQGLGKEKQGHVEPVATEVKNNRKGLGANEKEPPTKSYKDQVLEKTKQRFNEKR | not soluble |
| MTSSSSPSQDTKRLAQTYPEGLRADALMEEDVAWNRGNDSQWDGEQFDRSDRAALRRVAGLSTELEDVTEVEYRQLRLERVVLVGVWTSGTVQDAENSLAELAALAETAGALVLDGVVQRRDKPDAATYIGSGKAEELRDVVLHTGADTVICDGELSPGQLIHLEDVVKVKVIDRTALILDIFAQHAKSREGKAQVALAQMQYMLPRLRGWGQSLSRQMGGGKGGGLATRGPGETKIETDRRRIREKMAKMRREIAEMKTGREIKRQERKRHKVPSVAIAGYTNAGKSSLLNRLTGAGVLVENALFATLDPTVRRAETPSGRLYTLADTVGFVRHLPHHLVEAFRSTMEEVGDSDLILHVVDGSHPVPEEQLAAVREVIRDVGATDVPEIVVINKADMADPLVLQRLLRIEKRAIAVSARTGQNIDQLLALIDNELPRPSVEIEALVPYTHGKLVARAHDEGEVISEEHTPEGTLLKVRVHEELAAELAPYVPAPLALEHHHHHH | not soluble |
| MTSVIPEQRNNPFYRDSATIASSDHTERGEWVTQAKCRNGDPDALFVRGAAQRRAAAICRHCPVAMQCCADALDNKVEFGVWGGLTERQRRALLRKKPHITNWAEYLAQGGEIAGV | not soluble |
| MTSVSGCGSVSLITNRSAFLGNGLQHRAVFLKPWSSSSLQSRSMVVEAKTKTSSEDRIARHSRIRKKVNGTTERPRLCVFRSNKHLYVQVIDDTKMHTLASASTKQKPISEEFDYTSGPTIEVAKKVGEVIAKSCLEKGITKVAFDRGGYPYHGRIEALAAAAREHGLQF | not soluble |
| MTTAFFVAADWLAEHIDDPEIQILDARMAPPGQEHRDMAGEYRAGHIPGALFFDIEALSDRASPLPHMMPRPEAFAVAMRELGVRQDKHLVIYDEGNLFSAPRAWWMLRTFGAEKVSILAGGLAGWQRDEWLLREGEEAHEGGEFEAKFAPQAVVRLTDVLLASHEKTAQIVDARPAARFNAQADEPRPGLRRGHIPGALNVPWTELVYEGELKTTDELNEVFFSHGVSFDRPIIASCGSGVTAAVVVLALATLDVPDVTLYDGAWSEWGARTDLPVEPA | not soluble |
| MTTAVTQAIIDGFFDASNGDPFATLGMHETEQGIEIRTLLPDANRMVVIERESGKEITELDCVDERGFFVGVIPNCRQFFAYQLQVFWGNEAQIIEDPYRFHPMID | not soluble |
| MTTHLSNVAPDLQNYLNAIGEPEHPVLTRLREKTGHHRMGKMAIAREQAAVLVWLAKLIRAEKYLEIGVFTGYSSTALALALPEHGRITACDINVTFTDTARQVWNEAGVAHKISLHLQPALLTLDDLIAQGEAGSYDLALIDADKPPTPQYFERCLKLVRQGGIIAIDNILLNGRVMREAASDAPPSVGILKDFNQNLPNDPRIVPITLPVGDGLTLLLKK | not soluble |
| MTTLKLFDIEHAWGLPRKVSPRFGARLILRGLHLDYLHDRASFVGEFPPAIKQQFVEAFPAMVKQLERLVATGEIDTTEQHCVSIEHAGFTCEADTLGSHGYLYIAIYQTKAKPLTTSNLTITR | not soluble |
| MTTLKVKQLANKKGLNILEDSIEINESGVDFQVAHVTEQNGDKWILRIPRRPESMRHALREKEALEIMKKHAAFQVPNWSIFSEELIAYKQLSGFPAATIDIEQQKYVWNFNEKNVPTEYYISLGKVLANVHSLSQQKFNNIGVEILTANELRTSMKQRMNRVKEQYHINQNLWDRWQAWLAEDSFWPSHVGVKHGDIHPGHILIDKKNNVTGLIDWTEVGIGDVSIDFTSHYLLFGKDGLTKLIHSYDNAGGKTWSRMDEHIIELLTTSSITVAEYAQVSGLKDMHEAAIHMLATEC | not soluble |
| MTTSAMTAPDTRRQLQHVETLRRFLRGDSCFVHDLRGMMDYHDGLSRRQQRAFCRASRVLTDPEPIQSEAEGENKQFTEHTHKVVSFFIKSVFVFPYLVLPNCCQVSVDRSRVPETGGRWLLEHHHHHH | not soluble |
| MTTVSNIHHASKPRLNTLLVTARDSPYDTTLPARTPVDFCRPGSQWRVMDIDLVLAPVDGSDQSERAAEYAIAVAERYDADLHLLFVIDERLHQDIDSGDVSATAIAEEHQAFTESIRDRFRDAHDGVFETSSATAFSETRLMQTPGSVVLDVAEDLDSDFIVVPREEGSEEAVGRAAIYVIEYASQPVLTV | not soluble |
| MTTVTVTTEIPPRDKMEDNSALYESTSAHIIEETEYVKKIRTTLQKIRTQMFKDEIRHDSTNHKLDAKHCGNLQQGSDSEMDPSCCSLDLLMKKIKGKDLQLLEMNKENEVLKIKLQASREAGAAALRNVAQRLFENYQTQSEEVRKKQEDSKQLLQVNKLEKEQKLKQHVENLNQVAEKLEEKHSQITELENLVQRMEKEKRTLLERKLSLENKLLQLKSSATYGKSCQDLQREISILQEQISHLQFVIHSQHQNLRSVIQEMEGLKNNLKEQDKRIENLREKVNILEAQNKELKTQVALSSETPRTKVSKAVSTSELKTEGVSPYLMLIRLRK | not soluble |
